Seven molecules from patent US11994512B2, “Single-cell genomic methods to generate ex vivo cell systems that recapitulate in vivo biology with improved fidelity” (Massachusetts Institute of Technology, priority 2018, dated 2024) can be followed below.

The test relates to intracellular proteome of ENR+CD and ENR organoids. In words: LC-MS/MS TMT proteomics of ENR+CD versus ENR organoids. The class given is cell-based, C57BL/6 mice. Particulars: for Average logFC: ENR+CD versus ENR organoids, sample pairs in aggregate (n=4, 2 technical replicates from two biological donors); for M1-1 Log2 Median Normalized / M1-2 Log2 Median Normalized / M2-1 Log2 Median Normalized / M2-2 Log2 Median Normalized: protein abundance ratio ENR+CD versus ENR organoids, LC-MS/MS TMT proteomics; for M1-1 Log2 Median Normalized: sample pair M1-1; for M1-2 Log2 Median Normalized: sample pair M1-2; for M2-1 Log2 Median Normalized: sample pair M2-1; for M2-2 Log2 Median Normalized: sample pair M2-2; for change: up = enriched in ENR+CD, down = enriched in ENR, FDR<0.05 and log fold change cut-off.

B1: Q8BK48 (protein, UniProt Q8BK48 1-559, looked up)
chain: MPLYKLLGWLNAVACGVLLLVLHVQGQDSASPIRNTHTGQVRGSLVHVKDTDIAVHTFLGIPFAKPPVGPLRFAPPEAPEPWSGVRDGTSHPNMCLQNDNLMGSEDLKMMNLILPPISMSEDCLYLNIYVPAHAHEGSNLPVMVWIHGGALTVGMASMYDGSMLAATEDVVVVAIQYRLGVLGFFSTGDQHAKGNWGYLDQVAALRWVQQNIVHFGGNPDRVTIFGESAGGTSVSSHVVSPMSQGLFHGAIMESGVAVLPDLISSSSEMVHRIVANLSGCAAVNSETLMCCLRGKNEAEMLAINKVFKIIPGVVDGEFLPKHPQELMASKDFHPVPSIIGINNDEYGWILPTIMDPAQKIEEITRKTLPAVLKSTALKMMLPPECGDLLMEEYMGDTEDPETLQAQFREMKGDFMFVIPALQVAHFQRSHAPVYFYEFQHRPSFFKDFRPPYVKADHGDEIFLVFGYQFGNIKLPYTEEEEQLSRRIMKYWANFARHGNPNSEGLPYWPVMDHDEQYLQLDIQPSVGRALKARRLQFWTKTLPQKIQELKGSQERHKEL
modifications: full-length
Turning to B1, the “Average logFC” value is given as −1.69, the “M1-1 Log2 Median Normalized” value was −1.646, the “M1-2 Log2 Median Normalized” value is −1.907 and the “M2-1 Log2 Median Normalized” value was −2.1625. The “M2-2 Log2 Median Normalized” value was −1.046 and the change entry is given as “down”.

B2: Q80Z37 (protein, UniProt Q80Z37 1-1033, looked up)
chain: MGSQPPPPGSPLSREEGEAPPLVPAEEGRRRSRRVRLRGSCRHRPSLLSRRELASNGPAVPATASSEIMASAAKEFKMDNFSPKAGTSKLQQTVPADASPDSKCPICLDRFDNVSYLDRCLHKFCFRCVQEWSKNKAECPLCKQPFDSIFHSVRAEDDFKEYVLRPSYNGSFTNPEVRRFRYRTTMTRERSASLYSPSSTVSRRTTTPPDSGVLFEGLGISTRPRDVDIPQFMRQMALRGPTTTDERSLRKIQEQDIINFRRTLYRAGVRVRSIEDGGRYRDISAEFFRRNPACLHRLVPWLKRELTVLFGAHGSLVNIVQHIIMSNVTRYDLESQAFVSDLRPFLLNRTEHFIHEFISFARSPFNMAAFDQHANYDCPPSSEEGSRSDSSVITISPDEAETQELDMNASTVRQAPWDDETPGPSYSSSEQVHVGVSSLLNSSDSSDEELVSGGTTSQIQGVQTNDDVNNDSDSSSDNCVIVGFVKPLAERTPELVELSSDSEELGPYEKVETVKTQEQEQSYSSGDSDVSRASSPRSVLGKDEQMSKSHCDSDTRISSKKEEKRSTSLPAPRDSSSTRGDRVCSPYNHRHRKGGRSRSSDSRSQSRSGHDPRNHRKHGKKRLRNKRSRSRESSSRPRARKDKKRSRTRDSSWSRRSQTLSLSSGSTSRSRSRSSDHGKRRSRSRNRDRYYLRNNYGSKYKWEYTYYSRNKDRDGYESSYRRRTLSRAHYSRQSSSPEFRIQSFSERTNARKKNHSERKYYYYERRRSRSVSSNRSRTTSAGPDRVRNEKPGGKRKYKTRHLEGTSEEAQPAREFTSKGKDSHYQKSKLDGSYKNESDSFSDSRSSDRETKHKRRRRRTRSLSVEIVYEGKATDTSKHHKKKKKKHKKKHKKHHGDNTSRSPVVITIDSDSDGESEVKAGIECSNGSLPQPIQDGAFETKDVVTIEDELGVLDKDCDVTALADDLSTSQTVENCDSPAVPVEQTLDVREESTFASDLESQSSNVSIQAEPSRPVPSPRTSLSSVSPGRDCDVS
modifications: full-length
Consider B2, for which the “Average logFC” value was 1.193, the “M1-1 Log2 Median Normalized” value is listed as 1.31, the “M1-2 Log2 Median Normalized” value amounted to 0.914 and the “M2-1 Log2 Median Normalized” value is 1.7665. The “M2-2 Log2 Median Normalized” value worked out at 0.782 and the change entry is on record as “up”.

B3: Q80XU3 (protein, UniProt Q80XU3 1-234, looked up)
chain: MSRPVRNRKVVDYSQFQESDDADEDYGRDSGPPAKKIRSSPREAKNKRRSGKNSQEDSEDSEEKDVKTKKDDSHSAEDSEDEKDDHKNVRQQRQAASKAASKQREMLLEDVGSEEEPEEDDEAPFQEKDSGSDEDFLMEDDDDSDYGSSKKKNKKMVKKSKPERKEKKMPKPRLKATVTPSPVKGKAKVGRPTASKKSKEKTPSPKEEDEEAESPPEKKSGDEGSEDEASSGED
modifications: full-length
Take B3: the “Average logFC” value is −1.313, the “M1-1 Log2 Median Normalized” value is listed as −1.892, the “M1-2 Log2 Median Normalized” value is −0.72 and the “M2-1 Log2 Median Normalized” value is −1.5225. In addition, the “M2-2 Log2 Median Normalized” value is listed as −1.116 and the change entry is listed as “down”.

B4: Q7TNV0 (protein, UniProt Q7TNV0 1-380, looked up)
chain: MSAAAAPAAEGEDAPVPPSSEKEPEMPGPREESEEEEEDDEDDDEEDEEEEKEKSLIVEGKREKKKVERLTMQVSSLQREPFTVTQGKGQKLCEIERIHFFLSKKKPDELRNLHKLLYNRPGTVSSLKKNVGQFSGFPFEKGSTQYKKKEEMLKKFRNAMLKSICEVLDLERSGVNSELVKRILNFLMHPKPSGKPLPKSKKSSSKGSKKERNSSGTTRKSKQTKCPEILSDESSSDEDEKKNKEESSEDEEKESEEEQPPKKTSKKEKAKQKATAKSKKSVKSANVKKADSSTTKKNQKSSKKESESEDSSDDEPLIKKLKKPPTDEELKETVKKLLADANLEEVTMKQICKEVYENYPAYDLTERKDFIKTTVKELIS
modifications: full-length
For the molecule B4, the “Average logFC” value is recorded as −1.42, the “M1-1 Log2 Median Normalized” value is listed as −1.8, the “M1-2 Log2 Median Normalized” value is −0.726 and the “M2-1 Log2 Median Normalized” value was −1.2915. The “M2-2 Log2 Median Normalized” value was −1.861 and the change result is recorded as “down”.

B5: Q7TQD2 (protein, UniProt Q7TQD2 1-218, looked up)
chain: MADSKAKPAKAANKTPPKSPGDPARAAKRLSLESEGANEGATAAPELSALEEAFRRFAVHGDTRATGKEMHGKNWSKLCKDCHVIDGKNVTVTDVDIVFSKIKGKSCRTITFEQFQEALEELAKKRFKDKSSEEAVREVHRLIEGRAPVISGVTKAVSSPTVSRLTDTSKFTGSHKERFDQSGKGKGKAGRVDLVDESGYVPGYKHAGTYDQKVQGGK
modifications: full-length
As to B5, the “Average logFC” value is reported as 1.241, the “M1-1 Log2 Median Normalized” value is on record as 1.195, the “M1-2 Log2 Median Normalized” value was 1.666 and the “M2-1 Log2 Median Normalized” value stood at 0.7645. The “M2-2 Log2 Median Normalized” value turned out to be 1.337 and the change entry is “up”.

B6: Q80V42 (protein, UniProt Q80V42 1-443, looked up)
chain: MDRARLWLGLLLPVVAALDFRYHHQEGMEAFLKSVAQNYSSITHLHSIGKSVRGRNLWVLVVGQTPKEHRVGIPEFKYVANMHGDETVGRELLLHLIDYLVSSYRKDPEITHLIDSTRIHIMPSMNPDGFEAVQKPDCYYSNGRENYNNYDLNRNFPDAFENNNVTKQPETLAIMEWLKTETFVLSANLHGGALVASYPFDNGVQATGTLLSRSLTPDDDVFQHLAYTYASRNPNMTKGDQCKNKRNFPNGIINGYSWYPLQGGMQDYNYIWAQCFEITLELSCCKYPREEKLPLFWNDNKASLIEYIKQVHLGVKGQVFDQSGAPLPNVIVEVQDRKHICPFRTNKLGEYYLLLLPGSYVINVTVPGHDSYLTKLTIPGKSQPFSALKKDFHLPLRWQPDSISVSNPSCPMIPLYKFMPSHSAATKPSLGVFFMTLLYVFFK
modifications: full-length
Take B6: the “Average logFC” value is 1.366, the “M1-1 Log2 Median Normalized” value was 1.517, the “M1-2 Log2 Median Normalized” value is listed as 1.383 and the “M2-1 Log2 Median Normalized” value is recorded as 1.3355. Besides, the “M2-2 Log2 Median Normalized” value was determined as 1.228 and the change entry was “up”.

B7: Q8BM96 (protein, UniProt Q8BM96 1-785, looked up)
chain: MRSCRSCNVRVLVAIVCGLLTGIVLGLGIWRMVIRINRGIFVPVPSIPVQFCRNGGTWQNGRCICTEEWKGLRCTIANFCENSTDGEFTFGSIPVGRYGPSLQTCEPGTLNAGSPKATRLCNVSEFGNIELQNVTKGSCNINLQTLEIQINNQTASAENISREAQVLTADASKLTAQNITSATTVVGQIFGKANNESQAKKTAIATVSQILDASEDVFQKAAEMDNSKSFSNLIKQMENYSYSQGDQTVVEPNIAIQSVTRDDNSGPSVLFSVQKGSSNSLVSGRILINKTANGLNPDGQTELQILLNTGENRKSCGFMVYQNHKLFQSKTFTATSDFSQKIISSKINESEQQRQNKVSVEMVFNPTYDKRELRLHSYACVYWNFLINDWDTQGCQKTGNTTEFLRCNCSHTTNFAVLMSFKKDYKYPKSLDILSNIGCALSIAGLALTILFQILTRKIRKTSVTWVLVSLCSSMLIFNLLFVFGIENSNKNLKTSDSDINVKPENNKIPESDTIETPNPSCTAIAALLHYFLLVTFTWNGLSATQLYFLLIRTMKPLPRHFIIFISLVGWGVPAIIVGVTIGSIYALSGNKRYWELDYRQEEICWLAVPKDNDYARSPLLWSFIIPVTIILITNITIFVIITVKVLWKNNQNLTSTKKVSSLKKVFSTLSIAVVFGVTWILAYAMLISNDDIRIVFSYIFCLFNTTQGLQIFILYTVRTKVFQSEASKILKSLSSSFDRTKPMPSITPLKLRVRMYNMLRSLPSLNERFRLLEPSGMTEETSLS
modifications: full-length
B7: the “Average logFC” value was −1.142, the “M1-1 Log2 Median Normalized” value is −0.895, the “M1-2 Log2 Median Normalized” value is −1.193 and the “M2-1 Log2 Median Normalized” value is reported as −1.2285. In addition, the “M2-2 Log2 Median Normalized” value was −1.142 and the change entry is on record as “down”.
